Data on one substance can be found in article PMC7924616.

The target in the assay is Gorilla bocavirus 1 (GBoV1) VP3, assembled as virus-like particles (VP3-only capsids) (Gorilla bocavirus 1). Nature of the assay: cryo-EM structure; purified GBoV1 VLPs (wild-type and VP3-only) in 1x PBS vitrified on holey carbon grids; Titan Krios 300 kV; cisTEM reconstruction with imposed icosahedral symmetry; 2.76 Å.

In general, stoichiometry N refers to the number of molecules, sites or subunits per partner or assembly. Turning to “Gorilla bocavirus 1 (GBoV1) VP3, assembled as virus-like particles (VP3-only capsids) (natural protein)”, the stoichiometry N turned out to be 60.
